In ChEMBL document CHEMBL1130869, “Peptide-based inhibitors of the hepatitis C virus serine protease” (Bioorg Med Chem Lett, 1998) one finds Km data, which are given here for 1 protein.

Substrate in this series: CC[C@H](C)[C@H](NC(=O)[C@H](CC(=O)O)NC(=O)[C@@H](N)CC(=O)O)C(=O)N[C@H](C(=O)N1CCC[C@H]1C(=O)N[C@@H](CS)C(=O)O)C(C)C
Kind of series: Km against NS3-4Apep protease determined by non-linear regression analysis of the velocity data. In kind it is protein-complex assay. As to conditions: Hepacivirus hominis.

B1: Hepatitis C virus serine protease, NS3/NS4A (Hepatitis C virus), D2K2A8+A3EZI9 (protein)
chain 1: STWVLLGGVLAALAAYCLSVGCVVIVGYIELGGKPALVPDKEVCYQQYDEMEEC
chain 2: APITAYAQQTRGLLGCIITSLTGRDKNQVEGEVQIVSTAAQTFLATCINGVCWTVYHGAGTRTIASSKGPVIQMYTNVDQDLVGWPAPQGARSLTPCTCGSSDLYLVTRHADVIPVRRRGDGRGSLLSPRPISYLKGSSGGPLLCPAGHAVGIFRAAVCTRGVAKAVDFIPVEGLETTMRSPVFSDNSSPPAVPQSYQVAHLHAPTGSGKSTKVPAAYAAQGYKVLVLNPSVAATLGFGAYMSKAHGIDPNIRTGVRTITTGSPITYSTYGKFLADGGCSGGAYDIIICDECHSTDATSILGIGTVLDQAETAGARLTVLATATPPGSVTVPHPNIEEVALSTTGEIPFYGKAIPLEAIKGGRHLIFCHSKKKCDELAAKLVALGVNAVAYYRGLDVSVIPASGDVVVVATDALMTGFTGDFDSVIDCNTCVTQTVDFSLDPTFTIETTTLPQDAVSRTQRRGRTGRGKPGIYRFVTPGERPSGMFDSSVLCECYDAGCAWYELTPAETTVRLRAYMNTPGLPVCQDHLEFWEGVFTGLTHIDAHFLSQTKQSGENLPYLVAYQATVCARAQAPPPSWDQMWKCLIRLKPTLHGPTPLLYRLGAVQNEITLTHPITKYIMTCMSADLEVVT
One may read the Km as the concentration of substrate that gives half-maximal velocity. Turning to B1, the Km was determined as 37 µM.
